The record followed here is patent publication US20230242675A1 (SHANGHAI EPIMAB BIOTHERAPEUTICS, published 2023).

A word on the EC50: it is the concentration needed to bring the measured effect to its halfway point. The term Kd denotes the free concentration of one partner at which half of the binding sites on the other are occupied at equilibrium, for simple one-to-one binding. A high value points to a looser complex. In general, IC50 refers to the concentration at which inhibition is half-maximal. High values mean weaker potency in that assay, low ones greater potency in that assay. The koff is the rate constant with which the complex falls apart. Read a high koff as fast dissociation.

For test [1], the target named is T1, human PD-L1 on the cell surface (CHO-K1 cells stably expressing human PD-L1) (human, UniProt Q9NZQ7 19-290).
T1 construct: whole, on cells; Also used here for PD-L1 on the monocyte-derived dendritic cells of the MLR assay (functional rows); also called CHO-K1/PD-L1; CHOK1-PD-L1
T1 sequence (Q9NZQ7 19-290): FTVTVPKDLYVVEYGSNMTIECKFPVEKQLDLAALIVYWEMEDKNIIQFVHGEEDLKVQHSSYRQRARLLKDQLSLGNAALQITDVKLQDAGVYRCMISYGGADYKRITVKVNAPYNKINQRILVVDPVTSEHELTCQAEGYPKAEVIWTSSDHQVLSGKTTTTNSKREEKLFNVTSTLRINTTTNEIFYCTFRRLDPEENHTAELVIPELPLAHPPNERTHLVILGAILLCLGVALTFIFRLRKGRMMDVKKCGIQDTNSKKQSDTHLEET
Nature of the test: FACS on CHO-K1/hPD-L1 cells. On the procedure:
The ability of the purified antibodies to bind to cell membrane human PD-L1 was determined by FACS analysis. CHO-K1 cells stably expressing human PD-L1 (CHO-K1/hPD-L1 cells) were resuspended in PBS containing 2% FBS (FACS buffer) and seeded at 1×10⁵ cells/well into 96-well round-bottomed plates (Corning; Cat. No. 3799). […] The assay plate was then read on a flow cytometer. The data were processed by GraphPad software, and EC50 values were calculated. The EC50 for binding activity according to this FACS analysis is the concentration at which of an antibody induces a response halfway between the baseline and maximum and reflects the binding ability of the antibody.

Test [2] addresses T2, cynomolgus (cyno) PD-L1/His fusion protein (cynomolgus, UniProt G7PSE7 19-239).
T2 construct: also called cynomolgus PD-L1; not shown: His tag
Nature of the test: ELISA, coated cyno PD-L1 protein. On the procedure: (§1) The ability of an antibody to bind human or cynomolgus (cyno) PD-L1 (binding activity) was determined by ELISA. ELISA plates were incubated overnight at 4° C. with 50 μl of the human or cyno PD-L1 protein described above diluted in PBS buffer, pH 7.4, at 1 μg/ml. Plates were washed four times in washing buffer (PBS containing 0.05% Tween 20) and blocked for 1 hour at 37° C. with 200 μl per well of blocking buffer (1% BSA in PBS containing 0.05% Tween 20). After blocking buffer was removed, diluted purified antibodies (200 nM and 1:5 serial dilutions to provide 7 concentrations of each antibody) were added to the wells at 100 μl per well and incubated at 37° C. for 1 hour. The wells were washed four times with washing buffer, and anti-human IgG (Fc-specific) HRP-conjugated antibody (Sigma), diluted 1:10,000, was added to the wells at 100 μl per well. The plates were incubated for 1 hour at 37° C. and washed four times in washing buffer. 100 μl of tetramethylbenzidine (TMB) chromogenic solution were added per well. Following color development, the reaction was stopped with 1 N HCl, and absorbance at 450 nm was measured on a VARIOSKAN™ LUX multimode microplate reader (ThermoFisher Scientific, Vataa, Finland). The data were processed by GraphPad software, and EC50 values were calculated. The EC50 for binding activity according to this ELSA is the concentration at which an antibody induces a response halfway between the baseline and maximum and indicates the binding ability of the antibody.
On the technique in general: In an ELISA, binding on a coated surface is turned into a signal by an enzyme label.

The target of test [3] is T3, human PD-L1/His fusion protein (human, UniProt Q9NZQ7 19-239). Kind of test: BLI off-rate; test group 1 (reference itself). On the procedure:
(§2) All 15 antibodies in Table 13 were assayed for and ranked by dissociation rate constant (koff). […] Briefly, antibodies were characterized for affinities and binding kinetics by Octet®RED96 biolayer interferometry (Pall ForteBio LLC). Antibodies were captured by Anti-hIgG Fc Capture (AHC) Biosensors (Pall) at a concentration of 100 nM for 30 seconds. Sensors were then dipped into running buffer (1×pH 7.2 PBS, 0.05% Tween 20, 0.1% BSA) for 60 seconds to check the baseline. Binding was measured by dipping sensors into a single concentration of recombinant human PD-L1/His fusion protein (Novoprotein). Dissociation was followed by dipping sensors into running buffer for 1200 seconds. The association and dissociation curves were fitted to a 1:1 Langmuir binding model using ForteBio Data Analysis software (Pall). […] The off-rate ratio serves as a data normalization. Accordingly, in each test group, the off-rate ratios of the humanized antibodies can be compared with that of the chimeric antibody, and the off-rate ratios of each of the humanized antibodies can be compared to one another within all test groups.

The target of test [4] is T3, human PD-L1/His fusion protein. Nature of the test: BLI off-rate; test group 2 (reference itself). As to the method:
as §2

For test [5] the target is unchanged. Nature of the test: BLI off-rate; test group 3 (reference itself). On the procedure: as §2
Test [6] deals with T2, cynomolgus (cyno) PD-L1/His fusion …. Kind of test: BLI Octet RED96, cyno PD-L1; cyno PD-L1, not human. For orientation: In BLI a coated tip is dipped into the sample, and binding shifts an interference pattern.
Test [7] deals with T3, human PD-L1/His fusion protein. Nature of the test: ELISA, coated human PD-L1 protein, anti-human Fc detection. As to the method:
as §1

Test [8] addresses human PD-L1/Fc Fusion Protein (human). Nature of the test: RBA ELISA: coated PD-L1/Fc, competitor biotinylated human PD-1. On the procedure: ELISA plates were coated with 100 μl of 1 μg/ml of human PD-L1/Fc in PBS and incubated overnight at 4° C. Plates were washed four times in washing buffer (PBS containing 0.05% Tween 20) and blocked for 1 hour at 37° C. with 200 μl per well of blocking buffer (1% BSA in PBS containing 0.05% Tween 20). […] A human IgG was included as negative control. The signal was developed by adding streptavidin-HRP (Cat. No. S2468, Sigma) (100 μl/well at 1:5000 dilution) and incubating for 40 minutes at 37° C., followed by washing four times in washing buffer. Then, 100 μl of TMB solution were added per well. Following color development, the reaction was stopped with 1 N HCl, and absorbance at 450 nm was measured. The data were processed by GraphPad software, and IC50 values were calculated. […] The signal reduction induced by antibody samples was normalized to inhibition percentage, where the negative control was 0% inhibition, and the absolute value of signal reduction of each antibody divided by the signal of the negative control equals the percent inhibition by the antibody.

The target of test [9] is T3, human PD-L1/His fusion protein. Kind of test: BLI Octet RED96, antibody on AHC sensor, PD-L1/His in solution. As to the method: Binding of antibodies to PD-L1 was also assessed using biolayer interferometry (BLI) using an Octet® RED96 sensor device (Pall ForteBio LLC). Antibodies were captured by anti-hIgG Fc capture (AHC) Biosensors (Pall) at a concentration of 100 nM for 30 seconds. Sensors were then dipped into running buffer (1×pH7.2 PBS, 0.05% Tween 20, 0.1% BSA) for 60 seconds to check the baseline. Binding was measured by dipping sensors into a series of diluted concentrations of recombinant human PD-L1/His fusion protein. Dissociation was followed by dipping sensors into running buffer for 1200 seconds. The association and dissociation curves were fitted to a 1:1 Langmuir binding model using ForteBio Data Analysis software (Pall). The equilibrium dissociation constant KD (molarity) of the reaction between antibodies and related target proteins was then calculated from the kinetic rate constants using the formula KD=koff/kon.

Test [10] has the same target. Nature of the test: BLI Octet RED96, antibody on AHC sensor, single conc. PD-L1/His; test group 1. On the procedure: as §2
Test [11] shares this target. Kind of test: BLI Octet RED96, antibody on AHC sensor, single conc. PD-L1/His; test group 2. As to the method:
as §2

For test [12] the target is unchanged. Kind of test: BLI Octet RED96, antibody on AHC sensor, single conc. PD-L1/His; test group 3. On the procedure: as §2

T3 sequence (Q9NZQ7 19-239 limits assumed): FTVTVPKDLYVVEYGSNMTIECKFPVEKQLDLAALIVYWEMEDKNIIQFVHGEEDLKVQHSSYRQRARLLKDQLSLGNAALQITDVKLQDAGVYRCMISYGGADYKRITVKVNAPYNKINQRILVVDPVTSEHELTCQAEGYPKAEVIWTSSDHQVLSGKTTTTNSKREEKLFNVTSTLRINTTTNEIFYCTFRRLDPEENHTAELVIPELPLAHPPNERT
T2 sequence (G7PSE7 entry or part of it): as the sequence (Q9NZQ7 19-239 limits assumed) above, with A33T, A34S, S62N, R68Q, Q82R, F173L, T185A, T192I, H215L counted along it
human PD-L1/Fc Fusion Protein (human), sequence (chain, as listed by the source limits assumed): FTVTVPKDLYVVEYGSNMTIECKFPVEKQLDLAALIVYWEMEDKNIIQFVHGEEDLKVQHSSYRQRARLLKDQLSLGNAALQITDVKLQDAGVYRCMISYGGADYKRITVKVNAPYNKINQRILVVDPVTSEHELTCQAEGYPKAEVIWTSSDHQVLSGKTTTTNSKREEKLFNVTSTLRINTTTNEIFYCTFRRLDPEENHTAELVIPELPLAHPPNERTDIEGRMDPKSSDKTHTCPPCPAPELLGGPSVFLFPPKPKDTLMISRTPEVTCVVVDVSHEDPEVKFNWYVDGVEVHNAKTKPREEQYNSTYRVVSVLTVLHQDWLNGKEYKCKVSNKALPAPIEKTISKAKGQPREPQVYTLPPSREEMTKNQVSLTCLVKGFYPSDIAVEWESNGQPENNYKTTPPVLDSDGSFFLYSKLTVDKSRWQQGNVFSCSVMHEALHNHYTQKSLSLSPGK

B1: EM0005-mAb86c (antibody, human IgG1, kappa, V domains shown)
VH: QVQLQQSGAELVRPGSSVKMSCKTSGYTFTTYGINWVKQRPGQGLEWIGYIYIGNGYTEYNEKFKGKATLTSDPSSRTAYMQLSSLTSEDSAIYFCARDLMVIAPKTMDYWGQGTSVTVSS
VL: DIQMNQSHKFMSTSVGDRVSITCKASQDVGTAVAWYQQKPGQSPKLLIYWASTRHTGVPDRFTGGGSGTDFTLTISNVQSEDLADYFCQQYSSYPYTFGGGTKLEMKR
notes: Chimeric full-length IgG1; also called EM0005-86c; EM0005-86C
For B1, the EC50 in [1] came to 0.22 nM; in test [2], 0.1 nM; in test [7], 0.14 nM. For the same molecule, the “Off-Rate Ratio to that of EM0005-86c” value in test [3], in [4] and in test [5] was 100% in each case. Further, the Kd in test [6] was 0.373 nM; in test [9] it was 0.261 nM. This molecule also gave an IC50 in test [8] of 1.09 nM. Moreover, in test [8], the “Inhibition (percent)” value came to 97.4%. Also, the koff worked out at 0.00123 s⁻¹ in [10], 0.00179 s⁻¹ in test [11] and 0.00103 s⁻¹ in test [12].
